Measurements reported in CN115819582A (HEFEI TIANGANG IMMUNOLOGY PHARMACEUTICAL CO LTD, dated 2023).
One block for each binder: values may come before it.

Biological target: T1, 重组人PVRIG-人IgG1 Fc融合蛋白 (human)
T1 construct: The Fc gene was added at the C-terminus of the gene for the PVRIG extracellular domain; no linker or signal peptide is stated; also called 人PVRIG重组蛋白
Experiment: ELISA, coated PVRIG-Fc 0.5 ug/ml, anti-mouse IgG-HRP

T1 sequence (chain, as listed by the source limits assumed): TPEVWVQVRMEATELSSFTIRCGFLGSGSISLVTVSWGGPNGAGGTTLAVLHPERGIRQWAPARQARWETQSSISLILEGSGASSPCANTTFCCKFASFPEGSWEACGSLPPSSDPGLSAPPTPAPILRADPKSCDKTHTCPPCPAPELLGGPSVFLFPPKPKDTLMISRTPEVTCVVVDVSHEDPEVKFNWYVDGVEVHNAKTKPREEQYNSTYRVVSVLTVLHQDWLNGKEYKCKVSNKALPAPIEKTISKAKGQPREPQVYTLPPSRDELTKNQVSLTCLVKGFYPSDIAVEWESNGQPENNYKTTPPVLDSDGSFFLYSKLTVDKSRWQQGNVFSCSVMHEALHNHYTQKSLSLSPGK

binding result: binds
B1: 鼠单抗mAb003 (antibody, mouse IgG1, kappa, V domains shown)
VH: EVQLQQSGPELVKPGASVRITCKASGYTFTDYNIHWVKQSHGKSLEWIGYIYPYNGGSGYNQKFKSQATLTVDTSSTTAYMEIRSLTSEDSAVYYCAREEVRRDEALDFWGQGTSVTVSS
VL: DIQMTQSPASLSVSVGETVNITCRVSENIYSNLAWYQQKQGKSPQLLVYGASNLPDGVPSRFSGSGSGTQYSLKINTLQSEDFGTYYCQHFWGTPYTFGGGTKLEIKR
notes: Mouse monoclonal antibody from a hybridoma; also called PVRIG抗体

binding result: binds
B2: 鼠单抗mAb004 (antibody, mouse IgG1, kappa)
heavy: QVQLQQPGAELVKPGTSVKLSCKASGYNFTSYWINWVKLRPGQGLEWIGDIYPGNYSPNYNEKFLNKATLTTDTASSTAYMQLNNLASEDSAVYYCASGYFDYWGQGTTLIVSAAKTTPPSVYPLAPGSAAQTNSMVTLGCLVKGYFPEPVTVTWNSGSLSSGVHTFPAVLQSDLYTLSSSVTVPSSTWPSETVTCNVAHPASSTKVDKKIVPRDCGCKPCICTVPEVSSVFIFPPKPKDVLTITLTPKVTCVVVDISKDDPEVQFSWFVDDVEVHTAQTQPREEQFNSTFRSVSELPIMHQDWLNGKEFKCRVNSAAFPAPIEKTISKTKGRPKAPQVYTIPPPKEQMAKDKVSLTCMITDFFPEDITVEWQWNGQPAENYKNTQPIMDTDGSYFVYSKLNVQKSNWEAGNTFTCSVLHEGLHNHHTEKSLSHSPGK
light: DIVMTQSPSSLSVSAGEEVIMSCKSSQSLLNSGTQKNYLAWYQQKPGQPPKLLIYGTSTRESGVPDRFTGSGSGTDFTLTINNVQAEDLAIYYCQNDHSYPYTFGGGTKLEIKRADAAPTVSIFPPSSEQLTSGGASVVCFLNNFYPKDINVKWKIDGSERQNGVLNSWTDQDSKDSTYSMSSTLTLTKDEYERHNSYTCEATHKTSTSPIVKSFNRNEC
notes: as for B1

binding result: binds
B3: 鼠单抗mAb002 (antibody, mouse IgG1, kappa, V domains shown)
VH: EVQLQQSGPELVKPGASMKISCKASGYSFTGYTMNWVKQSPGKNLEWIGLITPYNNDTSYNQKFKGKATLTVDKSSSTAYMELLSLTSEDSAVYYCARWVYGNYVGWFAYWGQGTLVTVSA
VL: DIVMTQSHKFMSTSVGDRVNITCKASQDVSTSVTWYQQKPGQSPKLLIYSTSYRYTGVPDRFTGSGSGTDFTFTISSVQAEDLAVYYCQQHYSTPWTFGGGTKLEIKR
notes: as for B1

binding result: binds
B4: 鼠单抗mAb001 (antibody, mouse IgG1, kappa, V domains shown)
VH: EVQLQQSGPDLVKTGASVKISCKAVGYSFTGYNVHWVKQSHDKSLEWIGYIHFYTGATDYNQKFKDKATFTVDASSNTAYMQFNSLTSEDSAVYYCAIMRWAVDYWGQGTSVTVSS
VL: QIVLTQSPTIMSASPGETVTMTCSVSSSVNYIYWYQQKSGASPKRWIYDTSKLASGVPSRFSGSGSGASYSLTISNMEAEDAATYYCQQWSSNPYTFGGGTKLEIKR
notes: as for B1
